Assay results: paper PMC4180030

Molecular target: dimeric oxygen-evolving photosystem II complex isolated from WT T. elongatus (Thermosynechococcus elongatus (endogenous in T. elongatus BP1)) (UniProt P0A444)
Experiment: co-purification by two-step anion-exchange chromatography, immunoblotting; PSII complexes isolated from WT T. elongatus membranes (Kern et al. 2005); semi-quantitative immunoblotting of thylakoids and PSII against recombinant protein standards

stoichiometry N (CyanoQ per PSII monomer): 0.4
B1: CyanoQ (Tll2057) from Thermosynechococcus elongatus (natural protein)
chain: CGGPSATTPPPPTYSELQITRIQDYLRDIEKNAERFADLEVSVAKGDWQEARNIMRGPLGEMLMDMRALNRNLLAKDQPTPTALTRALTDDFLKIDQGADLDSVTVAQEGFREAEADFKAYLNSLPELS
